Measured values as given in patent US20260242478A1 (published 2026).

Columns and labels:
[1] = target: T1, 006 PSMA Fab; assay: phage ELISA; biotinylated PSMA Fab on neutravidin plate, blocking buffer alone, anti-M13-HRP detection
T1 construct: also called Anti-PSMA Fab
Procedure: (§1) Clonal phage were harvested as crude supernatants and screened via standard ELISAs. […] Prior to the addition of clonal phage. wells were incubated with blocking buffer and PSMA antigen or blocking buffer alone. Without washing or aspirating, clonal phage supernatants were then added to the wells and incubated for a short time. Wells were then washed followed by detection of bound phage using a horse radish conjugated anti-M13 antibody.

[2] = target: T1, 006 PSMA Fab; assay: phage ELISA; biotinylated PSMA Fab on neutravidin plate, wells pre-incubated with PSMA antigen as competitor, anti-M13-HRP detection
Procedure: as §1

[3] = target: T2, PSMA Fab; assay: clonal phage ELISA on biotinylated PSMA Fab captured on neutravidin plates, anti-M13-HRP detection, no PSMA antigen
T2 construct: Biotinylated and captured on neutravidin plates in the phage ELISA; also called anti-PSMA Fab; 006 PSMA Fab
Procedure: as §1

[4] = target: T2, PSMA Fab; assay: clonal phage ELISA on captured PSMA Fab, wells pre-incubated with PSMA antigen as competitor, anti-M13-HRP detection;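 also: crude clonal phage supernatants added without washing after the PSMA preincubation, comparison wells received blocking buffer alone without PSMA, bound phage read after washing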
Procedure: as §1

Binder | Phage binding ELISA signal, Anti-PSMA Fab [1] | Phage binding ELISA signal, Anti-PSMA Fab in presence of PSMA antigen [2] | phage binding ELISA signal [3] | phage binding ELISA signal in presence of PSMA [4]
SLPLCKPLWMCEGF (tested as crude clonal phage supernatant) [Phage-2887] | 2.36 | 0.0872 | – | –
ETPFCIPQWMCDGF [Phage-2892] | – | – | 2.35 | 0.123
WDAKCVPRWMCDGF (tested as crude clonal phage supernatant) [Phage-2883] | 2.37 | 0.125 | – | –
NWPVCKPMWMCTGF [Phage-2898] | – | – | 2.34 | 0.155
PERMCIPSWMCEVL (tested as crude clonal phage supernatant) [Phage-2882] | 2.38 | 0.1 | – | –
DGIKCVPRWMCDGF (tested as crude clonal phage supernatant) [Phage-2886] | 2.36 | 0.146 | – | –
PWLMCKPAWMCTGF [Phage-2900] | – | – | 2.34 | 0.183
NPPYCVPAWMCAGF (tested as crude clonal phage supernatant) [Phage-2885] | 2.37 | 0.0765 | – | –
QALMCVPEWMCLGF [Phage-2895] | – | – | 2.35 | 0.1
EAHICRPLWMCTGF (tested as crude clonal phage supernatant) [Phage-2891] | 2.36 | 0.0899 | – | –
VLKMCEPLWMCVGF [Phage-2894] | – | – | 2.35 | 0.117
VTPKCVPMWMCAGF [Phage-2901] | – | – | 2.34 | 0.123
VSKVCKPAWMCEGL (tested as crude clonal phage supernatant) [Phage-2888] | 2.36 | 0.104 | – | –
EFMRCTPPWMCLGF (tested as crude clonal phage supernatant) [Phage-2884] | 2.37 | 0.12 | – | –
IERMCRPAWMCDGF [Phage-2896] | – | – | 2.35 | 0.188
MASLCVPSWMCTGF (tested as crude clonal phage supernatant) [Phage-2889] | 2.36 | 0.0629 | – | –
MEIRCTPPWMCMGF [Phage-2899] | – | – | 2.34 | 0.0795
ALPQCVPAWMCLGF [Phage-2893] | – | – | 2.35 | 0.0796
QEVYCKPAWMCDGF (tested as crude clonal phage supernatant) [Phage-2890] | 2.36 | 0.104 | – | –
QTVMCRPAWMCVGF [Phage-2902] | – | – | 2.34 | 0.092
HDKLCRPAWMCNGF [Phage-2897] | – | – | 2.35 | 0.107
